From patent US20120178908A1 (Novo Nordisk, published 2012)
Numbering of substitutions follows the chain as printed. Names and notes keep the numbering of the source.

B1: Fab AP-3-LC-L4a-hTF.1-219; VH-CH1-HPC4 (other)
light: DIVMTQAAPSVPVTPGESVSISCRSSRSLLHSNGNTYLCWFLQRPGQSPQLLIYRMSNLASGVPDRFSGSGSGTAFTLRISRVEAEDVGVYYCMQHLEYPFTFGSGTKLEIKRTVAAPSVFIFPPSDEQLKSGTASVVCLLNNFYPREAKVQWKVDNALQSGNSQESVTEQDSKDSTYSLSSTLTLSKADYEKHKVYACEVTHQGLSSPVTKSFNRGECGSGGGGSGGGGSGGGGSSGTTNTVAAYNLTWKSTNFKTILEWEPKPVNQVYTVQISTKSGDWKSKCFYTTDTECDLTDEIVKDVKQTYLARVFSYPAGNVESTGSAGEPLYENSPEFTPYLETNLGQPTIQSFEQVGTKVNVTVEDERTLVRRNNTFLSLRDVFGKDLIYTLYYWKSSSSGKKTAKTNTNEFLIDVDKGENYCFSVQAVIPSRTVNRKSTDSPVECMGQEKGEFRE
heavy: QVQLQQSGAELVRPGTSVKISCKASGYTFTNYWLGWVKQRPGHGLEWIGDIYPGGGYNKYNENFKGKATLTADTSSSTAYMQLSSLTSEDSAVYFCAREYGNYDYAMDSWGQGTSVTVSSASTKGPSVFPLAPCSRSTSESTAALGCLVKDYFPEPVTVSWNSGALTSGVHTFPAVLQSSGLYSLSSVVTVPSSSLGTKTYTCNVDHKPSNTKVDKRVESKEDQVDPRLIDGK
B2: Fab AP-3-LC.C34S-L4a-hTF.1-219; VH-CH1-HPC4 (other)
light: B1 light with C39S
heavy: B1 heavy
B3: Fab 0012-LC-L1-TF;VH-CH1-HPC4 (protein)
light chain-linker-TF: DVVMTQTPLSLPVSLGDQASISCRSSQSLVHRNGNTYFHWCLQKPGQSPKLLIYKVSNRFSGVPDRFSGSGSGTDFTLKISRVEAEDLGVYFCSQSTHVPYTFGGGTKLEIKRTVAAPSVFIFPPSDEQLKSGTASVVCLLNNFYPREAKVQWKVDNALQSGNSQESVTEQDSKDSTYSLSSTLTLSKADYEKHKVYACEVTHQGLSSPVTKSFNRGECGSSGTTNTVAAYNLTWKSTNFKTILEWEPKPVNQVYTVQISTKSGDWKSKCFYTTDTECDLTDEIVKDVKQTYLARVFSYPAGNVESTGSAGEPLYENSPEFTPYLETNLGQPTIQSFEQVGTKVNVTVEDERTLVRRNNTFLSLRDVFGKDLIYTLYYWKSSSSGKKTAKTNTNEFLIDVDKGENYCFSVQAVIPSRTVNRKSTDSPVECMGQEKGEFRE
VH-CH1-HPC4: EVKLLESGGGLVQPGGSLKLSCAASGFDFSRYWMTWVRQAPGKGLEWIGEINPDSSTINYTPSLKDKFIISRDNAKNTLYLQMSEVRSEDTALYYCASGVFTSWGQGTLVTVSAASTKGPSVFPLAPCSRSTSESTAALGCLVKDYFPEPVTVSWNSGALTSGVHTFPAVLQSSGLYSLSSVVTVPSSSLGTKTYTCNVDHKPSNTKVDKRVESKEDQVDPRLIDGK
B4: Fab 0012-LC-L7-TF;VH-CH1-HPC4 (protein)
light chain-linker-TF: DVVMTQTPLSLPVSLGDQASISCRSSQSLVHRNGNTYFHWCLQKPGQSPKLLIYKVSNRFSGVPDRFSGSGSGTDFTLKISRVEAEDLGVYFCSQSTHVPYTFGGGTKLEIKRTVAAPSVFIFPPSDEQLKSGTASVVCLLNNFYPREAKVQWKVDNALQSGNSQESVTEQDSKDSTYSLSSTLTLSKADYEKHKVYACEVTHQGLSSPVTKSFNRGECGGGGSGGGGSGGGGSGSGGGGSGGGGSGGGGSSGTTNTVAAYNLTWKSTNFKTILEWEPKPVNQVYTVQISTKSGDWKSKCFYTTDTECDLTDEIVKDVKQTYLARVFSYPAGNVESTGSAGEPLYENSPEFTPYLETNLGQPTIQSFEQVGTKVNVTVEDERTLVRRNNTFLSLRDVFGKDLIYTLYYWKSSSSGKKTAKTNTNEFLIDVDKGENYCFSVQAVIPSRTVNRKSTDSPVECMGQEKGEFRE
VH-CH1-HPC4: B3 VH-CH1-HPC4
B5: Fab 0012-LC-L3-TF;VH-CH1-HPC4 (protein)
light chain-linker-TF: DVVMTQTPLSLPVSLGDQASISCRSSQSLVHRNGNTYFHWCLQKPGQSPKLLIYKVSNRFSGVPDRFSGSGSGTDFTLKISRVEAEDLGVYFCSQSTHVPYTFGGGTKLEIKRTVAAPSVFIFPPSDEQLKSGTASVVCLLNNFYPREAKVQWKVDNALQSGNSQESVTEQDSKDSTYSLSSTLTLSKADYEKHKVYACEVTHQGLSSPVTKSFNRGECGSGGGGSGGGGSSGTTNTVAAYNLTWKSTNFKTILEWEPKPVNQVYTVQISTKSGDWKSKCFYTTDTECDLTDEIVKDVKQTYLARVFSYPAGNVESTGSAGEPLYENSPEFTPYLETNLGQPTIQSFEQVGTKVNVTVEDERTLVRRNNTFLSLRDVFGKDLIYTLYYWKSSSSGKKTAKTNTNEFLIDVDKGENYCFSVQAVIPSRTVNRKSTDSPVECMGQEKGEFRE
VH-CH1-HPC4: B3 VH-CH1-HPC4
B6: Fab 0012-LC-L2-TF;VH-CH1-HPC4 (protein)
light chain-linker-TF: DVVMTQTPLSLPVSLGDQASISCRSSQSLVHRNGNTYFHWCLQKPGQSPKLLIYKVSNRFSGVPDRFSGSGSGTDFTLKISRVEAEDLGVYFCSQSTHVPYTFGGGTKLEIKRTVAAPSVFIFPPSDEQLKSGTASVVCLLNNFYPREAKVQWKVDNALQSGNSQESVTEQDSKDSTYSLSSTLTLSKADYEKHKVYACEVTHQGLSSPVTKSFNRGECGSGGGGSSGTTNTVAAYNLTWKSTNFKTILEWEPKPVNQVYTVQISTKSGDWKSKCFYTTDTECDLTDEIVKDVKQTYLARVFSYPAGNVESTGSAGEPLYENSPEFTPYLETNLGQPTIQSFEQVGTKVNVTVEDERTLVRRNNTFLSLRDVFGKDLIYTLYYWKSSSSGKKTAKTNTNEFLIDVDKGENYCFSVQAVIPSRTVNRKSTDSPVECMGQEKGEFRE
VH-CH1-HPC4: B3 VH-CH1-HPC4
B7: Fab 0012-LC-L9-TF;VH-CH1-HPC4 (protein)
light chain-linker-TF: DVVMTQTPLSLPVSLGDQASISCRSSQSLVHRNGNTYFHWCLQKPGQSPKLLIYKVSNRFSGVPDRFSGSGSGTDFTLKISRVEAEDLGVYFCSQSTHVPYTFGGGTKLEIKRTVAAPSVFIFPPSDEQLKSGTASVVCLLNNFYPREAKVQWKVDNALQSGNSQESVTEQDSKDSTYSLSSTLTLSKADYEKHKVYACEVTHQGLSSPVTKSFNRGECGGGGSGGGGSGGGGSGGGGSGGGGSGSGGGGSGGGGSGGGGSSGTTNTVAAYNLTWKSTNFKTILEWEPKPVNQVYTVQISTKSGDWKSKCFYTTDTECDLTDEIVKDVKQTYLARVFSYPAGNVESTGSAGEPLYENSPEFTPYLETNLGQPTIQSFEQVGTKVNVTVEDERTLVRRNNTFLSLRDVFGKDLIYTLYYWKSSSSGKKTAKTNTNEFLIDVDKGENYCFSVQAVIPSRTVNRKSTDSPVECMGQEKGEFRE
VH-CH1-HPC4: B3 VH-CH1-HPC4
B8: Fab 0012-LC-L6-TF;VH-CH1-HPC4 (protein)
light chain-linker-TF: DVVMTQTPLSLPVSLGDQASISCRSSQSLVHRNGNTYFHWCLQKPGQSPKLLIYKVSNRFSGVPDRFSGSGSGTDFTLKISRVEAEDLGVYFCSQSTHVPYTFGGGTKLEIKRTVAAPSVFIFPPSDEQLKSGTASVVCLLNNFYPREAKVQWKVDNALQSGNSQESVTEQDSKDSTYSLSSTLTLSKADYEKHKVYACEVTHQGLSSPVTKSFNRGECGGGGSGGGGSGSGGGGSGGGGSGGGGSSGTTNTVAAYNLTWKSTNFKTILEWEPKPVNQVYTVQISTKSGDWKSKCFYTTDTECDLTDEIVKDVKQTYLARVFSYPAGNVESTGSAGEPLYENSPEFTPYLETNLGQPTIQSFEQVGTKVNVTVEDERTLVRRNNTFLSLRDVFGKDLIYTLYYWKSSSSGKKTAKTNTNEFLIDVDKGENYCFSVQAVIPSRTVNRKSTDSPVECMGQEKGEFRE
VH-CH1-HPC4: B3 VH-CH1-HPC4
B9: Fab 0012-LC-L8-TF;VH-CH1-HPC4 (protein)
light chain-linker-TF: DVVMTQTPLSLPVSLGDQASISCRSSQSLVHRNGNTYFHWCLQKPGQSPKLLIYKVSNRFSGVPDRFSGSGSGTDFTLKISRVEAEDLGVYFCSQSTHVPYTFGGGTKLEIKRTVAAPSVFIFPPSDEQLKSGTASVVCLLNNFYPREAKVQWKVDNALQSGNSQESVTEQDSKDSTYSLSSTLTLSKADYEKHKVYACEVTHQGLSSPVTKSFNRGECGGGGSGGGGSGGGGSGGGGSGSGGGGSGGGGSGGGGSSGTTNTVAAYNLTWKSTNFKTILEWEPKPVNQVYTVQISTKSGDWKSKCFYTTDTECDLTDEIVKDVKQTYLARVFSYPAGNVESTGSAGEPLYENSPEFTPYLETNLGQPTIQSFEQVGTKVNVTVEDERTLVRRNNTFLSLRDVFGKDLIYTLYYWKSSSSGKKTAKTNTNEFLIDVDKGENYCFSVQAVIPSRTVNRKSTDSPVECMGQEKGEFRE
VH-CH1-HPC4: B3 VH-CH1-HPC4

Legend:
[1] = biological target: T1, GPIIbIIIa receptor on human platelets (human, UniProt P08514 32-1039; P05106 27-788); experiment: cell-based or functional assay
T1 sequence (P08514 32-1039, chain 1 of 2): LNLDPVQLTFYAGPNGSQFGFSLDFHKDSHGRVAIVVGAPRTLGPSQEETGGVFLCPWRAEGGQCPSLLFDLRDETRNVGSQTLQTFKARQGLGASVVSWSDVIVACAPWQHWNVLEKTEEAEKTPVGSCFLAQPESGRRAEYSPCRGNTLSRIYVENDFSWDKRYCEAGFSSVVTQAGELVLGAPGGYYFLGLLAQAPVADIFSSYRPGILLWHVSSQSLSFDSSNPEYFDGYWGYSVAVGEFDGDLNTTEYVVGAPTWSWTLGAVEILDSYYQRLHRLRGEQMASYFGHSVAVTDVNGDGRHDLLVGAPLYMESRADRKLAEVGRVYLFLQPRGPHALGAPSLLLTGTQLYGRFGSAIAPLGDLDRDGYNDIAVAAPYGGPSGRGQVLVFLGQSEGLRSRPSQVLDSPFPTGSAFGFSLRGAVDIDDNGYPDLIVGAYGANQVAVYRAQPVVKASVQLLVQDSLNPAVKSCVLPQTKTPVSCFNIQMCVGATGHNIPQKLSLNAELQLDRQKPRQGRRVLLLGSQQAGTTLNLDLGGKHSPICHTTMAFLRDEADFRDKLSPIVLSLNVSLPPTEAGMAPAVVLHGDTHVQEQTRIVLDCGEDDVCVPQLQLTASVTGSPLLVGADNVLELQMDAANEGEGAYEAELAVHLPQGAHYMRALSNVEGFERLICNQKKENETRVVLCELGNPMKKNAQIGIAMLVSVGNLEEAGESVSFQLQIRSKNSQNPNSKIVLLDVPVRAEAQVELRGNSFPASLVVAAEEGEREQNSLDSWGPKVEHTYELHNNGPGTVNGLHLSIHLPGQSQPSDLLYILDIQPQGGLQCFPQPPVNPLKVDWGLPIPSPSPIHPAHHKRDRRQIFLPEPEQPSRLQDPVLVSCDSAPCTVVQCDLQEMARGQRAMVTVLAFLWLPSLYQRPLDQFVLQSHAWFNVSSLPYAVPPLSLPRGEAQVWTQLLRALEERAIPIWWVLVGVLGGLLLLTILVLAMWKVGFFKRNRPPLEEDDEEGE
T1 sequence (P05106 27-788, chain 2 of 2): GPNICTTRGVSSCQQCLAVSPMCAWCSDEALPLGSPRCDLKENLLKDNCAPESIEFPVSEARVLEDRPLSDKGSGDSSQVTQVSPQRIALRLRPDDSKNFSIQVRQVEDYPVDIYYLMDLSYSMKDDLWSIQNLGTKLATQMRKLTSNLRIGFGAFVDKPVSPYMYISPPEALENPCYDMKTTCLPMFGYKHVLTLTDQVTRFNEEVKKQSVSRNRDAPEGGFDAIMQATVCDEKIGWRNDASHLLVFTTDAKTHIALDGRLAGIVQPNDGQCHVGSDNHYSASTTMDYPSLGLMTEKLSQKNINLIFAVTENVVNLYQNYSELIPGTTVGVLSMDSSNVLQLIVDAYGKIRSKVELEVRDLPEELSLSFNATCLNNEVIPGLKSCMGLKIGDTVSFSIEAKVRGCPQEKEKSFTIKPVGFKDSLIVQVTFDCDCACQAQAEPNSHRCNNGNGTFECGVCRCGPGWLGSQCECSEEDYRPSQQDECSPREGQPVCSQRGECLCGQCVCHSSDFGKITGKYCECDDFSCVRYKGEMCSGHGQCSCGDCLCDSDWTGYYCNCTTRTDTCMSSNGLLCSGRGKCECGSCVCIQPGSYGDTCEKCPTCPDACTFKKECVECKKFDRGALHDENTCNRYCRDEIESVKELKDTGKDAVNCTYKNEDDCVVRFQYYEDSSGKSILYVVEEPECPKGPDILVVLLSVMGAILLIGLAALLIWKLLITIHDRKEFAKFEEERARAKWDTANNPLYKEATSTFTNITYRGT

[2] = biological target: T1, GPIIbIIIa receptor on human platelets; experiment: cell-based or functional assay; remark: listed apart in the source
[3] = biological target: T2, TLT-1 18-188 relipidated in 20:80 PS:PC vesicles (human) (UniProt Q86YW5)
T2 sequence: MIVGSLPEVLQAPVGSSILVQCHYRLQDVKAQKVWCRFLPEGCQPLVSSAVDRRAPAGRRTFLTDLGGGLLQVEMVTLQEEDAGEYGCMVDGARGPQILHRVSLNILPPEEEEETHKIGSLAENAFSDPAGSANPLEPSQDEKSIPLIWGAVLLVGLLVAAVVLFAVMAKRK

[4] = biological target: T3, TLT-1 receptor on the surface of activated human platelets (human) (UniProt Q86YW5)
T3 sequence: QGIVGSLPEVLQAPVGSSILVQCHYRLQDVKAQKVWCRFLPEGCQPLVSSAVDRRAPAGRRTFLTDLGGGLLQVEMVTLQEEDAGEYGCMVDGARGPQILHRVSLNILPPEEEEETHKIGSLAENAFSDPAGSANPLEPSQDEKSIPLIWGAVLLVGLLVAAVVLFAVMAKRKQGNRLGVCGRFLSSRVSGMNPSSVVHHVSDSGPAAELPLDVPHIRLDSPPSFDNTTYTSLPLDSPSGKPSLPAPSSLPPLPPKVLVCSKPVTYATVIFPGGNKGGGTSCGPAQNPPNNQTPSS

Binder	FX activation: response with resting platelets relative to activated platelets [1]	FVII-mediated FXa generation % Activity activated plts (n 1) [2]	FVIIa-mediated FXa generation % Activity activated plts (n 1) [2]	FVII-mediated FXa generation % Activity lipidated TLT-1 [3]	FVIIa-mediated FXa generation % Activity lipidated TLT-1 [3]	FVII-mediated FXa generation % Activity activated plts (n 4) [4]	FVIIa-mediated FXa generation % Activity activated plts (n 1) [4]	FVII-mediated FXa generation % Activity activated plts (n 1) [4]
B1	~20 % of the response with activated platelets	218%	164%					
B2	~20 % of the response with activated platelets	215%	143%					
B3				97%	101%	111%	125%	
B4				95%	98%		95%	92%
B5				98%	105%		97%	98%
B6				96%	106%	96%	112%	
B7				88%	95%		76%	80%
B8				94%	101%		91%	95%
B9				94%	98%		81%	86%
